In paper PMC5986008, “Intracellular free flavin and its associated enzymes participate in oxygen and iron metabolism in Amphibacillus xylanus lacking a respiratory chain” (FEBS Open Bio, 2018):

Legend:
[1] = target: T1, NAD(P)H oxidoreductase (Npo) (Amphibacillus xylanus, UniProt K0J097); experiment: spectral analysis of FMN released from the protein by […] SDS; type: binding; settings: bound flavin cofactor, 1 mol FMN per subunit
T1 construct: recombinant from E. coli DE3, pET101 TOPO, reverse primer keeps native stop (primers encode N-terminus MAKDF, C-terminus CENFK); 23 kDa; 1 mol FMN per subunit
T1 sequence (K0J097 1-199): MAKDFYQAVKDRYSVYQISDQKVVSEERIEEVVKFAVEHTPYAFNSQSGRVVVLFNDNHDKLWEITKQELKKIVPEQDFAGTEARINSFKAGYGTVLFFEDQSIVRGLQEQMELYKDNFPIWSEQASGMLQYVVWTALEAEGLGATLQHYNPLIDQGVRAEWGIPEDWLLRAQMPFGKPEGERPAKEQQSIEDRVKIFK

[2] = target: T1, NAD(P)H oxidoreductase (Npo); experiment: NADPH oxidation kinetics (details not told); type: biochemical; settings: only an upper bound printed; conditions of this determination not told
[3] = substrate: Cc1cc2nc3c(=O)[nH]c(=O)nc-3n(C[C@H](O)[C@H](O)[C@H](O)COP(=O)(O)OP(=O)(O)OC[C@H]3O[C@@H](n4cnc5c(N)ncnc54)[C@H](O)[C@@H]3O)c2cc1C; experiment: purified protein; type: biochemical, Amphibacillus xylanus; settings: 50 mM sodium phosphate pH 7.0, 0.5 mM EDTA, 25 °C, FAD 15-150 μM as free substrate

In the case of Cc1cc2nc3c(=O)[nH]c(=O)nc-3n(C[C@H](O)[C@H](O)[C@H](O)COP(=O)(O)O)c2cc1C [FMN], the “spectral analysis of FMN released from the protein by 0.1% SDS” value [1] is reported as “spectral analysis of free FMN, which was released from Npo protein”.

Molecule NC(=O)C1=CN([C@@H]2O[C@H](COP(=O)(O)OP(=O)(O)OC[C@H]3O[C@@H](n4cnc5c(N)ncnc54)[C@H](OP(=O)(O)O)[C@@H]3O)[C@@H](O)[C@H]2O)C=CC1 [NADPH] has a Km [2] of under 33 µM.

B1: NAD(P)H oxidoreductase (Npo) (Amphibacillus xylanus NBRC 15112) (protein)
chain: T1 sequence (K0J097 1-199)
notes: recombinant from E. coli DE3, pET101 TOPO, reverse primer keeps native stop (primers encode N-terminus MAKDF, C-terminus CENFK); 23 kDa; 1 mol FMN per subunit
Molecule B1 has a Km ([3]; 150 μM NADPH) of 71 ± 10 µM, a kcat ([3]; 150 μM NADPH) of 1 ± 0.1 s⁻¹ and a kcat/Km ([3]; 150 μM NADPH) of 14000 ± 1000 M⁻¹ s⁻¹.

B2: NADH oxidase (Nox) (Amphibacillus xylanus NBRC 15112) (protein)
chain: MLDKDIKQQLEQYLALLENDIVIKVSVGDDKVSKDTLELVNEIADMSSMISVEETTLERTPSFSINRKGEPDSGVVFAGIPLGHEFTSLVLALLQVSGRAPKVEASVIDAIKKVEGKHDFVTYVSLTCQNCPDVVQALNLMSVVNPNITHTMVEGSAFKDEVDRLNILAVPSVYLNGEFMASGRMTIEDILGHLGSGIDASELNEKDPFDVLVIGGGPAGASSAIYAARKGIRVGIIADRFGGQVMDTLGIENFIGTKYTEGPKLISEIEQHVNEYNIDVMKGLRAHNIEKKDLFEVQLDNGAVLKSKTIILATGARWRDIGVPGEKEYKNKGVAYCTHCDAPLFEGKHVAVVGGGNSGIESALDLAGIVKHVTVFEFMSELKADAVLQERLRSLPNVDVILNAQTTEITGDETVKGISYIDRTTNEEKHVELQGAFIQIGLAPNTEWLGDTVERNQIGEIVIDKKGQTSVPGIFAAGDCTDTPYKQIIVSMGAGATAALGAFDYLLRN
Molecule B2 has a Km ([3]; 150 μM NADH) of 37 ± 3 µM, a kcat ([3]; 150 μM NADH) of 91 ± 8 s⁻¹ and a kcat/Km ([3]; 150 μM NADH) of 2.42e+06 ± 74000 M⁻¹ s⁻¹.
